Each block holds one molecule with its values, some of them ahead of it.
Legend:
[1] = biological target: T1, Recombinant human ADAM10 ectodomain (Homo sapiens, UniProt O14672); test: ADAM10 quench fluorescent peptide cleavage assay; type: biochemical; settings: titrated concentrations
T1 construct: Recombinant human ADAM10 ectodomain
T1 sequence (O14672 214-672 limits assumed): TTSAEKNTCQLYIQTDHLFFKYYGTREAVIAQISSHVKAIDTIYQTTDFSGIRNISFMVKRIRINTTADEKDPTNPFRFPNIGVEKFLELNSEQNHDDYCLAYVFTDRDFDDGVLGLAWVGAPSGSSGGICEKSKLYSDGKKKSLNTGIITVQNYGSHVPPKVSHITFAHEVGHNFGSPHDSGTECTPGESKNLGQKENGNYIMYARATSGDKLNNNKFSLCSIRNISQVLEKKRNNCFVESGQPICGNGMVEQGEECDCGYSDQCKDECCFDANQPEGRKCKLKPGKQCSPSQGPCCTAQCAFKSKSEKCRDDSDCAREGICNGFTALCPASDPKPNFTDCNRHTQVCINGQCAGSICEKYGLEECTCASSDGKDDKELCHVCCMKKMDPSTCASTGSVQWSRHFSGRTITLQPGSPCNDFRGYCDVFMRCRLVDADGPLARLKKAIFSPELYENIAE

[2] = biological target: T2, PDI treated TACE ectodomain (Homo sapiens, UniProt P78536); test: Antibody binding after PDI treatment of the TACE ectodomain
T2 construct: Mature recombinant TACE ectodomain (Arg^215-Arg^651) was expressed in baculovirus infected sf9 cells; made in house; host or cells: baculovirus infected Sf9 cells
T2 sequence (P78536 215-651): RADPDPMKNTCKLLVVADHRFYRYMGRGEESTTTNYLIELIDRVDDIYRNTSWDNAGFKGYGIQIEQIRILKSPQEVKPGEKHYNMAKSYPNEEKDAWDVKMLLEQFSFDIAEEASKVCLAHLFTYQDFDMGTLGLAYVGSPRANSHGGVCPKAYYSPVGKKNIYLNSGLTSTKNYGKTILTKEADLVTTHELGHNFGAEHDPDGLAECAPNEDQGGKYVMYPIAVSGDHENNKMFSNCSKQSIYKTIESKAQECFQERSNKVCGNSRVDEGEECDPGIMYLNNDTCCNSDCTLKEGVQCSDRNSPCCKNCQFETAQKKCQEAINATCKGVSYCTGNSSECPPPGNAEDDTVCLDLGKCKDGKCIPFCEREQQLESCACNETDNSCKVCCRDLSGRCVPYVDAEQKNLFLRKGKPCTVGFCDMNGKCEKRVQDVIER

[3] = biological target: T3, Recombinant human TACE catalytic domain (Homo sapiens, UniProt P78536); test: Quenched fluorescent peptide cleavage assay, isolated TACE catalytic domain; type: biochemical; settings: 1 nM TACE catalytic domain; read-out: IC50 Cat:WT, isolated catalytic domain, quenched fluorescent peptide
T3 construct: The mature catalytic domain of TACE (Arg^215-Val^477-GlySer-His^6) was prepared using an identical baculovirus system; GlySer-His6 (C); made in house; host or cells: baculovirus system (Sf9)
T3 sequence (P78536 215-477): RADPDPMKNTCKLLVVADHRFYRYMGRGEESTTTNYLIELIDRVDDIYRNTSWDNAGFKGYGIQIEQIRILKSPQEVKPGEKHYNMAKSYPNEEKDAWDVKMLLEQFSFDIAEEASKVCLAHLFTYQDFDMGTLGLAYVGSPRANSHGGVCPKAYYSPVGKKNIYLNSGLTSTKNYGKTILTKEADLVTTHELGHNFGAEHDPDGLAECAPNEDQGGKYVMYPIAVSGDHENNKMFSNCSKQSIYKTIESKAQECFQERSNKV
Procedure: (§1) Recombinant human TACE catalytic domain and TACE ectodomain were diluted to 1 nM in 50 mM Tris-HCl, 10 mM CaCl2, 0.05% Brij35, 1% DMSO, pH 7.4 and pre-incubated with titrated concentrations of inhibitor for 4-hours at room temperature. Following incubation, each reaction was separated into 200 μL technical quadruplets in a 96-well black Microwell plate (Nunc 237105), and the fluorogenic substrate methoxycoumarinyl acetyl-Lys-Pro-Leu-Gly-Leu-dinitrophenyl diaminopropionyl-Ala-Arg-NH2 (Peptides International SMO-3670-PI) was added to each well (final concentration 1 μM). Every 30 seconds fluorescence was excited at 320 nm and emission recorded at 405 nm in a Tecan Infinite-200 (at 37° C. for 2000 seconds). Individual readings were normalised against a substrate only control and compiled to produce a mean trend for each variable. A linear regression slope for each reaction was calculated in GraphPad Prism (ΔFU sec^−1) and proteolytic activity was expressed as the slope percentage of an untreated control (% ΔFU sec^−1). Final results represent mean values from three separate experiments.
(§2) Purified recombinant scFvs were subjected to an 8-point fluorometric titration ([TACE]=1 nM) (as above) and a 16-point titration ELISA ([TACE]-500 nM). […] Change in Gibb's Free Energy (ΔΔG) was calculated using the equation: ΔΔG=+RT1n(Ala/WT).

[4] = biological target: T4, Recombinant human TACE ectodomain (Arg215-Arg651) (Homo sapiens, UniProt P78536); test: Quenched fluorescent peptide cleavage assay, TACE ectodomain; type: biochemical; settings: 1 nM TACE ectodomain; read-out: IC50, TACE ectodomain proteolysis, quenched fluorescent peptide
T4 construct: Mature recombinant TACE ectodomain (Arg^215-Arg^651) was expressed in baculovirus infected sf9 cells; made in house; host or cells: baculovirus infected Sf9 cells
T4 sequence (P78536 215-651): as the sequence (P78536 215-651) above
Procedure: as §1, §2

effect on ADAM10 proteolytic activity [1]: rapidly inhibits
Molecule: CC(C)(C)[C@H](NC(=O)[C@H](CCCc1ccc(Cl)cc1)CC(=O)NO)C(N)=O [CT1746, reference compound]

IC50 [3]: 2.3 nM
IC50 [4]: 0.89 nM
B1: D1(A12) scFv: scFv format; VH SEQ ID NO: 7, VL SEQ ID NO: 9 (antibody, listed as Homo sapiens, V domains shown)
VH: EVQLVESGGGLVRPGGSLRLSCAASGFTFSSYAMSWVRQAPGKGLEWVSAISGSGGSTYYADSVKGRFTISRDNTKNSLYLQMTSLRADDTAFYYCVKDFGPGYGTGWFDYWGPGTLVTVSA
VL: SDIQMTQSPSSLSASVGDRVTITCRASQSISSYLNWYQQKPGKAPKLLIHDASSLQSGVPSRFSGSGSGTDFTLTISSLQPEDFATYYCQQSFSIPLTFGGGTKMDIKR
modifications: scFv linker
immunoreactivity following PDI treatment of the TACE ectodomain [2]: largely resistant to PDI modulation
